{"source": "patent CN115073593A", "about": "(SHANGHAI JUNSHI BIOSCIENCES CO LTD; JUNMENG BIOSCIENCES CO …, dated 2022)", "binders": {"B1": {"name": "JS016-40 (antibody, V domains shown)", "VH": "EVQLVESGGGLVQPGGSLRLSCAASGFTVGWNYMSWVRQAPGKGLEWVSVIYPGGTTFYADSVKGRFTISRDNSMNTLFLQMNSLRAEDTAVYYCARVLPMYGDYLDYWGQGTLVTVSS", "VL": "DIVMTQSPSSLSASVGDRVTITCRASQNIERYLNWYQQKPGKAPKLLIYAASSLQSGVPSRFSGSGSGTDFTLTISSLQPEDFATYYCQQSASSTPEYTFGQGTKLEIKR"}, "B2": {"name": "JS016-41-YTE (antibody, V domains shown)", "VH": "B1 VH with T28V, G30Q, W31A, T56S", "VL": "B1 VL"}, "B3": {"name": "JS016-77-YTE (antibody, V domains shown)", "VH": "B1 VH with T28V, G30Q, W31A, T56S", "VL": "B1 VL with E30L, R31P, A92S, S94A, T95V"}}, "note": "Where a chain is given by its changes, count along the chain named."}
{"target": "SARS-CoV-2 omicron突变株假病毒 (SARS-CoV-2 omicron variant)", "experiment": "cell-based or functional assay", "units": {"IC50(ng/ml), pseudovirus neutralisation, luciferase reporter": "ng/mL"}}
{"binder": "B1", "IC50(ng/ml), pseudovirus neutralisation, luciferase reporter": 24.6}
{"binder": "B2", "IC50(ng/ml), pseudovirus neutralisation, luciferase reporter": 17.6}
{"binder": "B3", "IC50(ng/ml), pseudovirus neutralisation, luciferase reporter": 776}
